According to patent EP2450379B1:

Assays:
[1] = biological target: full-length HA from isolate A/Vietnam/1194/2004 (H5N1TV) expressed on PER.C6 cells (influenza A virus A/Vietnam/1194/2004 (H5N1)) (UniProt Q80A26); test: FACS on HA (H5N1TV)-expressing PER.C6 cells, IgG 1 µg/ml
[2] = biological target: full-length HA from isolate A/Vietnam/1194/2004 (H5N1TV) expressed on PER.C6 cells (influenza A virus A/Vietnam/1194/2004 (H5N1)) (UniProt Q80A26); test: FACS on HA (H5N1TV)-expressing PER.C6 cells, IgG 10 µg/ml, separate experiment
[3] = biological target: recombinant HA, subtype H1 (A/New Caledonia/20/99 (H1N1)) (influenza A virus A/New Caledonia/20/99 (H1N1)) (UniProt Q289M7); test: ELISA, IgG 5 µg/ml
[4] = biological target: recombinant HA, subtype H9 (A/Hong Kong/1073/99 (H9N2)) (influenza A virus A/Hong Kong/1073/99 (H9N2)); test: ELISA, IgG 5 µg/ml
[5] = biological target: recombinant HA, subtype H5 (A/Vietnam/1203/2004 (H5N1)) (influenza A virus A/Vietnam/1203/2004 (H5N1)) (UniProt Q80A26); test: ELISA, IgG 5 µg/ml
[6] = biological target: recombinant HA, subtype H7 (A/Netherlands/219/03 (H7N7)) (influenza A virus A/Netherlands/219/03 (H7N7)); test: ELISA, IgG 5 µg/ml
[7] = biological target: recombinant HA, subtype H3 (A/Wyoming/3/2003(H3N2)) (influenza A virus A/Wyoming/3/2003 (H3N2)); test: ELISA, IgG 5 µg/ml
[8] = biological target: full-length HA from isolate A/Vietnam/1194/2004 (H5N1TV) expressed on PER.C6 cells (influenza A virus A/Vietnam/1194/2004 (H5N1)) (UniProt Q80A26); test: FACS on HA (H5N1TV)-expressing PER.C6 cells, IgG 1 µg/ml, separate experiment
[9] = biological target: full-length HA from isolate A/Vietnam/1194/2004 (H5N1TV) expressed on PER.C6 cells (influenza A virus A/Vietnam/1194/2004 (H5N1)) (UniProt Q80A26); test: FACS on HA (H5N1TV)-expressing PER.C6 cells, IgG 10 µg/ml
[10] = biological target: full-length HA from isolate A/Vietnam/1194/2004 (H5N1TV) expressed on PER.C6 cells (influenza A virus A/Vietnam/1194/2004 (H5N1)) (UniProt Q80A26); test: FACS on HA (H5N1TV)-expressing PER.C6 cells, IgG 0.1 µg/ml
[11] = biological target: full-length HA from isolate A/Vietnam/1194/2004 (H5N1TV) expressed on PER.C6 cells (influenza A virus A/Vietnam/1194/2004 (H5N1)) (UniProt Q80A26); test: FACS on HA (H5N1TV)-expressing PER.C6 cells, IgG 0.1 µg/ml, separate experiment

Row | Substance | flow cytometry signal [1] | flow cytometry signal [2] | OD 492nm [3] [OD 492nm] | OD 492nm [4] [OD 492nm] | OD 492nm [5] [OD 492nm] | OD 492nm [6] [OD 492nm] | OD 492nm [7] [OD 492nm] | flow cytometry signal [8] | flow cytometry signal [9] | flow cytometry signal [10] | flow cytometry signal [11]
1 | CR3014 (antibody) | 10 | 9.15 | 0.08 | 0.16 | 0.09 | 0.17 | 0.07 | 7.95 | 13.1 | 6.21 | 10.5
2 | CR6261 (antibody) |  |  |  |  | 1.44 | 0.31 | 0.07 |  |  |  | 
